{
  "source": "patent US20220236279A1",
  "about": "(LUXEMBOURG INSTITUTE OF HEALTH LIH, published 2022)",
  "binders": {"B1": {"name": "Cy-5-labelled LIH383 (peptide)", "peptide": "FGGFMRRK", "modifications": "also: Cy5 label, site not given here", "notes": "also called LIH383-Cy5; fluorescently labelled LIH383"}, "B2": {"name": "delta-type opioid receptor (DOR) (receptor, UniProt P41143 1-372, looked up)", "chain": "MEPAPSAGAELQPPLFANASDAYPSACPSAGANASGPPGARSASSLALAIAITALYSAVCAVGLLGNVLVMFGIVRYTKMKTATNIYIFNLALADALATSTLPFQSAKYLMETWPFGELLCKAVLSIDYYNMFTSIFTLTMMSVDRYIAVCHPVKALDFRTPAKAKLINICIWVLASGVGVPIMVMAVTRPRDGAVVCMLQFPSPSWYWDTVTKICVFLFAFVVPILIITVCYGLMLLRLRSVRLLSGSKEKDRSLRRITRMVLVVVGAFVVCWAPIHIFVIVWTLVDIDRRDPLVVAALHLCIALGYANSSLNPVLYAFLDENFKRCFRQLCRKPCGRPDPSSFSRAREATARERVTACTPSDGPGGGAAA", "notes": "whole, on cells; C-terminally SmBiT-tagged in the NanoBiT assays; also called OPRD; DOP"}},
  "key": {"[1]": {"molecular_target": "T1, C-X-C motif chemokine receptor 4 (CXCR4) (UniProt P61073 1-352)", "T1 construct": "whole, on cells; Stably expressed in U87 cells (U87-CXCR4); C-terminally SmBiT-tagged in the NanoBiT assays", "T1 sequence (P61073 whole entry)": "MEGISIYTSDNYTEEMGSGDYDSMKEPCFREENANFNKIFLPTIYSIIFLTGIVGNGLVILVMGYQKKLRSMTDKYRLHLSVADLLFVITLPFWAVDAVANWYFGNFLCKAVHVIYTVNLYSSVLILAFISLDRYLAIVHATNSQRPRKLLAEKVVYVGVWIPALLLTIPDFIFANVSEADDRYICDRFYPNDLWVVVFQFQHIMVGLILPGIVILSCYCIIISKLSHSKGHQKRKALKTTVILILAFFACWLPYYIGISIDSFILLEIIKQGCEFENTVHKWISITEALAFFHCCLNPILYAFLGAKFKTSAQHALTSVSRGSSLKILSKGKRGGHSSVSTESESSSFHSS", "experiment": "flow cytometry, labelled peptide on U87-CXCR4 cells"}, "[2]": {"molecular_target": "T2, human atypical chemokine receptor 3 (ACKR3) (human, UniProt P25106 1-362)", "T2 construct": "whole, on cells; also called CXCR7", "T2 sequence (P25106 whole entry)": "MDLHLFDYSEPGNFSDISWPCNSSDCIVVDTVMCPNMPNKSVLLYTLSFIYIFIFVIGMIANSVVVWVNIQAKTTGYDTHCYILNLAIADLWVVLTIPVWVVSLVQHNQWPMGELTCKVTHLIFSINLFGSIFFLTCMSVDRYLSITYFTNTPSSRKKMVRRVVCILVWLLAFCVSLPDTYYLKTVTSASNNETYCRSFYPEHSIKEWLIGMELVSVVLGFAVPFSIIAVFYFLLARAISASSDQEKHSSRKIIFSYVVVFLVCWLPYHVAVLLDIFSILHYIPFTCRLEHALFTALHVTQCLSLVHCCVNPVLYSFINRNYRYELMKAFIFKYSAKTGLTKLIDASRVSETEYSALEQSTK", "experiment": "flow cytometry competition with 5 nM CXCL12-AF647 on U87-ACKR3 cells", "excerpt": "Dead cells were excluded using Zombie Green viability dye (BioLegend). […] Ligand binding was quantified by mean fluorescence intensity on a BD FACS Fortessa cytometer (BD Biosciences)."}, "[3]": {"molecular_target": "T2, human atypical chemokine receptor 3 …", "experiment": "cell-based or functional assay"}, "[4]": {"molecular_target": "T3, human β-arrestin-1 N-terminally fused to LgBiT (human, UniProt P49407 1-418)", "T3 construct": "Co-expressed in U87 cells with SmBiT-tagged receptors; also called LgBiT-beta-arrestin-1; not shown: LgBiT (NanoBiT, Promega)", "T3 sequence (P49407 whole entry, the tested form may be a part)": "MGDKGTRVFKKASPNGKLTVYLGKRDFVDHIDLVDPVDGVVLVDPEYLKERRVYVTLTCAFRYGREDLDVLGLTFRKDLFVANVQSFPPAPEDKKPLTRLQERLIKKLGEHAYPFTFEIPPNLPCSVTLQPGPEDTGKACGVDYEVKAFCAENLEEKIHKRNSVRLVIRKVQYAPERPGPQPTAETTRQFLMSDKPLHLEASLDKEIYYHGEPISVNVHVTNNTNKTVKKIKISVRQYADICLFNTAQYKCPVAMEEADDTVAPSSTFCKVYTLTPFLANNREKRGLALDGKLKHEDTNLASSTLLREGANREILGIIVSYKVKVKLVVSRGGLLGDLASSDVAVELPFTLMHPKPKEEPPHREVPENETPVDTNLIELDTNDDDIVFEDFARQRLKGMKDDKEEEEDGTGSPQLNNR", "experiment": "NanoBiT complementation in U87 cells (receptor-SmBiT, LgBiT-β-arrestin-1), induced by adrenorphin", "protocol": "48 hours post-transfection cells were harvested, incubated 25 minutes at 37° C. with Nano-Glo Live Cell substrate diluted 200-fold and distributed into white 96-well plates (5×10⁴ cells per well). Ligand-induced, β-arrestin and mG recruitment to GPCRs was evaluated with a Mithras LB940 luminometer (Berthold Technologies) for 20 minutes. For concentration-response curves, the signal recorded with a saturating concentration of full agonist for each receptor was set as 100%."}, "[5]": {"molecular_target": "mu-type opioid receptor (MOR) (UniProt P35372 1-400)", "sequence (P35372 whole entry)": "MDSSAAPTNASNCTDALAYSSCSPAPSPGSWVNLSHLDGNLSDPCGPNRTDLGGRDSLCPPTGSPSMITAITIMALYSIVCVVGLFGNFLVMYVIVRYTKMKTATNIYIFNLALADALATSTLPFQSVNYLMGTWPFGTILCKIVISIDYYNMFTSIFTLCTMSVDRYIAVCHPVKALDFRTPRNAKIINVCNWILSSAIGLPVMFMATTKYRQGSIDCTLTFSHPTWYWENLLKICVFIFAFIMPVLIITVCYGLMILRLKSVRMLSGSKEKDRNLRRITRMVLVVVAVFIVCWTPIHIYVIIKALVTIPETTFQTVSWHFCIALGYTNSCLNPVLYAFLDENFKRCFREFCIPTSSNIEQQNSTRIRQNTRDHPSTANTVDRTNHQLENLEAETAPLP", "experiment": "cell-based or functional assay"}, "[6]": {"molecular_target": "kappa-type opioid receptor (KOR) (UniProt P41145 1-380)", "sequence (P41145 whole entry)": "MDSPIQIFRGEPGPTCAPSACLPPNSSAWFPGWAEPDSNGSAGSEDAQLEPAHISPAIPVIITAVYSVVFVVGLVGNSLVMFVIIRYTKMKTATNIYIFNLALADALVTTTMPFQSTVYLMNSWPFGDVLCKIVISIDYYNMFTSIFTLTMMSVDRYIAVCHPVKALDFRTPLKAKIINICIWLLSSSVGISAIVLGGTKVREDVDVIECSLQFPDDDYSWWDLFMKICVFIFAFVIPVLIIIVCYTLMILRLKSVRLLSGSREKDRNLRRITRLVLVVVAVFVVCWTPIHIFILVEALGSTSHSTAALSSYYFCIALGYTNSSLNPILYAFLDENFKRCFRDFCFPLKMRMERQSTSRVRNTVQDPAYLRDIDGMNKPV", "experiment": "cell-based or functional assay"}, "[7]": {"molecular_target": "B2", "experiment": "cell-based or functional assay"}},
  "note": "No end group written: not given here.",
  "data": [
    {"binder": "B1", "values": [
      {"measurement": "binding result", "setting": "[1]", "result": "no binding"}
    ]},
    {"binder": "GGFLRRIRPKLKWDNQ", "note": "[dynorphin 2-17 (SEQ ID NO: 19)]", "values": [
      {"measurement": "binding result", "setting": "[2]", "result": "binds"}
    ]},
    {"binder": "GGFLRRIRPKLK-NH2", "note": "[dynorphin 2-13 (SEQ ID NO: 20; NH2-substituted at C-terminus)]", "values": [
      {"measurement": "binding result", "setting": "[2]", "result": "binds"}
    ]},
    {"binder": "H-FGGFMRRK-NH2", "note": "[LIH383, octapeptide FGGFMRRK (SEQ ID NO: 3; NH2-substituted at C-terminus)]", "values": [
      {"measurement": "EC50, β-arrestin recruitment (NanoBiT)", "setting": "[3]", "result": 610, "unit": "pM"}
    ]},
    {"binder": "B2", "values": [
      {"measurement": "binding result", "setting": "[4]", "result": "binds"}
    ]},
    {"binder": "FGGFMRRV-NH2", "note": "[adrenorphin Y1F variant (SEQ ID NO: 35; NH2-substituted at C-terminus)]", "values": [
      {"measurement": "fold reduction of potency against WT adrenorphin, β-arrestin-1 recruitment", "setting": "[5]", "result": "> 100", "unit": "fold"},
      {"measurement": "fold change of potency against WT adrenorphin, β-arrestin-1 recruitment", "setting": "[3]", "result": 10, "unit": "fold"},
      {"measurement": "fold reduction of potency against WT adrenorphin, β-arrestin-1 recruitment", "setting": "[6]", "result": "> 100", "unit": "fold"},
      {"measurement": "fold reduction of potency against WT adrenorphin, β-arrestin-1 recruitment", "setting": "[7]", "result": "> 100", "unit": "fold"}
    ]}
  ]
}
